Experimental data from publication PMC9364786 (Journal of Virology, 2022).

Target: SARS-CoV-2 subdomain 1 (SBD) protein, D614G (SARS-CoV-2, UniProt P0DTC2)
Assay: ELISA
Details: both partners purified

B1: MAb 084-7D (antibody, V domains shown)
VH: EVQLLESGGGLVQPGGSLRLSCAASGFSFSSYAMNWVRQAPGKGLEWVSAISGGGDNIYYADSVKGRFTISRDNYKNTLHLQMKSLRAEDTAVYYCAKDHPSWGSSFLNWGQGILVIVSS
VL: DIQMTQSPSTLSASVGDRVTITCRASQSISSWLAWYQQKPGRAPKLLIYTASNLESGVPSRFSGSGSGTEFSLTISSLQPDDFATYYCQQYNSYSLTFGGGTRVEIK
notes: also called 084-7D MAb
binding result: no binding (tested: 5 μg/mL starting concentration)
